Data reported in patent US20240400654A1.
“And” between values parts separate entries of the source, which are not always exact repeats. Identical values can stand only once.

Molecular target: HRgpA-6H (Porphyromonas gingivalis) (UniProt P28784)
Assay: ELISA, coated HRgpA-6H

UniProt P28784, sequence (P28784 228-860 limits assumed): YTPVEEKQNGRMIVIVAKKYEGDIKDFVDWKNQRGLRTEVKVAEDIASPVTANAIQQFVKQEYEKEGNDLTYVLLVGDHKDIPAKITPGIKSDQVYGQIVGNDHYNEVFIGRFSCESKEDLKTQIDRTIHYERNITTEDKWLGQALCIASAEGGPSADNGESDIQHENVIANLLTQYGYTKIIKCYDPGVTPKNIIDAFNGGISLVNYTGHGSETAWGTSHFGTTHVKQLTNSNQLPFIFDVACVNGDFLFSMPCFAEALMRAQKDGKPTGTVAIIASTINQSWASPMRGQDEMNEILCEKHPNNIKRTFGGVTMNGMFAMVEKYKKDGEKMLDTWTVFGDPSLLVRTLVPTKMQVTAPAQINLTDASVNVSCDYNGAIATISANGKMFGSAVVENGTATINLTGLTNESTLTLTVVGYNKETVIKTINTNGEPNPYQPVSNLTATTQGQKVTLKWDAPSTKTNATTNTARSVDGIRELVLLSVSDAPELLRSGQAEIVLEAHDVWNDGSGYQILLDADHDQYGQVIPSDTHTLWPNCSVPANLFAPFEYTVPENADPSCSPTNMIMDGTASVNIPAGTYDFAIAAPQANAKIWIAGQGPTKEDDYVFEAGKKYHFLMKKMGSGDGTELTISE

| Binder | OD450 nm | Ratio OD(Variant)/OD(WT) |
| --- | --- | --- |
| KB001 mouse Fab VL T24K (Fab, V domains shown) VH: EVQLKQSGPGLVAPSQSLSITCTVSGFSLSIYSVHWVRQPPGKGLEWLGMIWGGGSSDYNSALKSRLSISKDNSKSQVFLKMNSLQTDDTAMYYCARNGNFYAMDYWGQGTSVTVSS VL: QIVLTQSPAIMSASLGERVTMTCKASSSVSSSFLHWYQQKPGSSPQLWIYSTSNLASGVPARFSGSGSGTSYSLTISSMEAEDAATYYCHQYHHSPYIYTFGGGTKLEIK | 0.797 and 0.734 | 1.04 and 0.954 |
| KB001 mouse Fab VL S28V (Fab, V domains shown) VH: EVQLKQSGPGLVAPSQSLSITCTVSGFSLSIYSVHWVRQPPGKGLEWLGMIWGGGSSDYNSALKSRLSISKDNSKSQVFLKMNSLQTDDTAMYYCARNGNFYAMDYWGQGTSVTVSS VL: QIVLTQSPAIMSASLGERVTMTCTASSVVSSSFLHWYQQKPGSSPQLWIYSTSNLASGVPARFSGSGSGTSYSLTISSMEAEDAATYYCHQYHHSPYIYTFGGGTKLEIK | 0.786 and 0.731 and 0.717 | 1.05 and 0.974 and 0.955 |
| KB001 mouse Fab VL S30F (Fab, V domains shown) VH: EVQLKQSGPGLVAPSQSLSITCTVSGFSLSIYSVHWVRQPPGKGLEWLGMIWGGGSSDYNSALKSRLSISKDNSKSQVFLKMNSLQTDDTAMYYCARNGNFYAMDYWGQGTSVTVSS VL: QIVLTQSPAIMSASLGERVTMTCTASSSVFSSFLHWYQQKPGSSPQLWIYSTSNLASGVPARFSGSGSGTSYSLTISSMEAEDAATYYCHQYHHSPYIYTFGGGTKLEIK | 0.911 | 1.06 |
| KB001 mouse Fab VL S28W (Fab, V domains shown) VH: EVQLKQSGPGLVAPSQSLSITCTVSGFSLSIYSVHWVRQPPGKGLEWLGMIWGGGSSDYNSALKSRLSISKDNSKSQVFLKMNSLQTDDTAMYYCARNGNFYAMDYWGQGTSVTVSS VL: QIVLTQSPAIMSASLGERVTMTCTASSWVSSSFLHWYQQKPGSSPQLWIYSTSNLASGVPARFSGSGSGTSYSLTISSMEAEDAATYYCHQYHHSPYIYTFGGGTKLEIK | 0.817 and 0.745 | 1.09 and 0.993 |
| KB001 mouse Fab VL S31E (Fab, V domains shown) VH: EVQLKQSGPGLVAPSQSLSITCTVSGFSLSIYSVHWVRQPPGKGLEWLGMIWGGGSSDYNSALKSRLSISKDNSKSQVFLKMNSLQTDDTAMYYCARNGNFYAMDYWGQGTSVTVSS VL: QIVLTQSPAIMSASLGERVTMTCTASSSVSESFLHWYQQKPGSSPQLWIYSTSNLASGVPARFSGSGSGTSYSLTISSMEAEDAATYYCHQYHHSPYIYTFGGGTKLEIK | 0.903 and 0.798 | 1.07 and 0.944 |
| KB001 mouse Fab VL S26D (Fab, V domains shown) VH: EVQLKQSGPGLVAPSQSLSITCTVSGFSLSIYSVHWVRQPPGKGLEWLGMIWGGGSSDYNSALKSRLSISKDNSKSQVFLKMNSLQTDDTAMYYCARNGNFYAMDYWGQGTSVTVSS VL: QIVLTQSPAIMSASLGERVTMTCTADSSVSSSFLHWYQQKPGSSPQLWIYSTSNLASGVPARFSGSGSGTSYSLTISSMEAEDAATYYCHQYHHSPYIYTFGGGTKLEIK | 0.821 | 1.05 |
| KB001 mouse Fab VL S31F (Fab, V domains shown) VH: EVQLKQSGPGLVAPSQSLSITCTVSGFSLSIYSVHWVRQPPGKGLEWLGMIWGGGSSDYNSALKSRLSISKDNSKSQVFLKMNSLQTDDTAMYYCARNGNFYAMDYWGQGTSVTVSS VL: QIVLTQSPAIMSASLGERVTMTCTASSSVSFSFLHWYQQKPGSSPQLWIYSTSNLASGVPARFSGSGSGTSYSLTISSMEAEDAATYYCHQYHHSPYIYTFGGGTKLEIK | 0.854 and 0.688 and 0.693 | 1.01 and 0.814 and 0.82 |
| KB001 mouse Fab VL S31T (Fab, V domains shown) VH: EVQLKQSGPGLVAPSQSLSITCTVSGFSLSIYSVHWVRQPPGKGLEWLGMIWGGGSSDYNSALKSRLSISKDNSKSQVFLKMNSLQTDDTAMYYCARNGNFYAMDYWGQGTSVTVSS VL: QIVLTQSPAIMSASLGERVTMTCTASSSVSTSFLHWYQQKPGSSPQLWIYSTSNLASGVPARFSGSGSGTSYSLTISSMEAEDAATYYCHQYHHSPYIYTFGGGTKLEIK | 0.859 and 0.74 and 0.782 | 1.02 and 0.876 and 0.925 |
| KB001 mouse Fab VL S28K (Fab, V domains shown) VH: EVQLKQSGPGLVAPSQSLSITCTVSGFSLSIYSVHWVRQPPGKGLEWLGMIWGGGSSDYNSALKSRLSISKDNSKSQVFLKMNSLQTDDTAMYYCARNGNFYAMDYWGQGTSVTVSS VL: QIVLTQSPAIMSASLGERVTMTCTASSKVSSSFLHWYQQKPGSSPQLWIYSTSNLASGVPARFSGSGSGTSYSLTISSMEAEDAATYYCHQYHHSPYIYTFGGGTKLEIK | 0.801 | 1.07 |
| KB001 mouse Fab VL T24H (Fab, V domains shown) VH: EVQLKQSGPGLVAPSQSLSITCTVSGFSLSIYSVHWVRQPPGKGLEWLGMIWGGGSSDYNSALKSRLSISKDNSKSQVFLKMNSLQTDDTAMYYCARNGNFYAMDYWGQGTSVTVSS VL: QIVLTQSPAIMSASLGERVTMTCHASSSVSSSFLHWYQQKPGSSPQLWIYSTSNLASGVPARFSGSGSGTSYSLTISSMEAEDAATYYCHQYHHSPYIYTFGGGTKLEIK | 0.795 | 1.03 |
| KB001 mouse Fab VL A25T (Fab, V domains shown) VH: EVQLKQSGPGLVAPSQSLSITCTVSGFSLSIYSVHWVRQPPGKGLEWLGMIWGGGSSDYNSALKSRLSISKDNSKSQVFLKMNSLQTDDTAMYYCARNGNFYAMDYWGQGTSVTVSS VL: QIVLTQSPAIMSASLGERVTMTCTTSSSVSSSFLHWYQQKPGSSPQLWIYSTSNLASGVPARFSGSGSGTSYSLTISSMEAEDAATYYCHQYHHSPYIYTFGGGTKLEIK | 0.823 and 0.801 | 1.05 and 1.02 |
| KB001 mouse Fab VL S51G (Fab, V domains shown) VH: EVQLKQSGPGLVAPSQSLSITCTVSGFSLSIYSVHWVRQPPGKGLEWLGMIWGGGSSDYNSALKSRLSISKDNSKSQVFLKMNSLQTDDTAMYYCARNGNFYAMDYWGQGTSVTVSS VL: QIVLTQSPAIMSASLGERVTMTCTASSSVSSSFLHWYQQKPGSSPQLWIYGTSNLASGVPARFSGSGSGTSYSLTISSMEAEDAATYYCHQYHHSPYIYTFGGGTKLEIK | 0.915 and 0.777 and 0.851 | 1.05 and 0.888 and 0.973 |
| KB001 mouse Fab VL S30G (Fab, V domains shown) VH: EVQLKQSGPGLVAPSQSLSITCTVSGFSLSIYSVHWVRQPPGKGLEWLGMIWGGGSSDYNSALKSRLSISKDNSKSQVFLKMNSLQTDDTAMYYCARNGNFYAMDYWGQGTSVTVSS VL: QIVLTQSPAIMSASLGERVTMTCTASSSVGSSFLHWYQQKPGSSPQLWIYSTSNLASGVPARFSGSGSGTSYSLTISSMEAEDAATYYCHQYHHSPYIYTFGGGTKLEIK | 0.916 and 0.858 | 1.06 and 0.995 |
| KB001 mouse Fab VL S31P (Fab, V domains shown) VH: EVQLKQSGPGLVAPSQSLSITCTVSGFSLSIYSVHWVRQPPGKGLEWLGMIWGGGSSDYNSALKSRLSISKDNSKSQVFLKMNSLQTDDTAMYYCARNGNFYAMDYWGQGTSVTVSS VL: QIVLTQSPAIMSASLGERVTMTCTASSSVSPSFLHWYQQKPGSSPQLWIYSTSNLASGVPARFSGSGSGTSYSLTISSMEAEDAATYYCHQYHHSPYIYTFGGGTKLEIK | 0.87 and 0.875 and 0.856 | 1.03 and 1.04 and 1.01 |
| KB001 mouse Fab VL A25F (Fab, V domains shown) VH: EVQLKQSGPGLVAPSQSLSITCTVSGFSLSIYSVHWVRQPPGKGLEWLGMIWGGGSSDYNSALKSRLSISKDNSKSQVFLKMNSLQTDDTAMYYCARNGNFYAMDYWGQGTSVTVSS VL: QIVLTQSPAIMSASLGERVTMTCTFSSSVSSSFLHWYQQKPGSSPQLWIYSTSNLASGVPARFSGSGSGTSYSLTISSMEAEDAATYYCHQYHHSPYIYTFGGGTKLEIK | 0.818 and 0.827 and 0.775 | 1.04 and 1.06 and 0.99 |
| KB001 mouse Fab VL S26N (Fab, V domains shown) VH: EVQLKQSGPGLVAPSQSLSITCTVSGFSLSIYSVHWVRQPPGKGLEWLGMIWGGGSSDYNSALKSRLSISKDNSKSQVFLKMNSLQTDDTAMYYCARNGNFYAMDYWGQGTSVTVSS VL: QIVLTQSPAIMSASLGERVTMTCTANSSVSSSFLHWYQQKPGSSPQLWIYSTSNLASGVPARFSGSGSGTSYSLTISSMEAEDAATYYCHQYHHSPYIYTFGGGTKLEIK | 0.823 and 0.749 | 1.05 and 0.957 |
| KB001 mouse Fab VL S31Y (Fab, V domains shown) VH: EVQLKQSGPGLVAPSQSLSITCTVSGFSLSIYSVHWVRQPPGKGLEWLGMIWGGGSSDYNSALKSRLSISKDNSKSQVFLKMNSLQTDDTAMYYCARNGNFYAMDYWGQGTSVTVSS VL: QIVLTQSPAIMSASLGERVTMTCTASSSVSYSFLHWYQQKPGSSPQLWIYSTSNLASGVPARFSGSGSGTSYSLTISSMEAEDAATYYCHQYHHSPYIYTFGGGTKLEIK | 0.849 | 1 |
| KB001 mouse Fab VL S28G (Fab, V domains shown) VH: EVQLKQSGPGLVAPSQSLSITCTVSGFSLSIYSVHWVRQPPGKGLEWLGMIWGGGSSDYNSALKSRLSISKDNSKSQVFLKMNSLQTDDTAMYYCARNGNFYAMDYWGQGTSVTVSS VL: QIVLTQSPAIMSASLGERVTMTCTASSGVSSSFLHWYQQKPGSSPQLWIYSTSNLASGVPARFSGSGSGTSYSLTISSMEAEDAATYYCHQYHHSPYIYTFGGGTKLEIK | 0.818 | 1.09 |
| KB001 mouse Fab VL S27K (Fab, V domains shown) VH: EVQLKQSGPGLVAPSQSLSITCTVSGFSLSIYSVHWVRQPPGKGLEWLGMIWGGGSSDYNSALKSRLSISKDNSKSQVFLKMNSLQTDDTAMYYCARNGNFYAMDYWGQGTSVTVSS VL: QIVLTQSPAIMSASLGERVTMTCTASKSVSSSFLHWYQQKPGSSPQLWIYSTSNLASGVPARFSGSGSGTSYSLTISSMEAEDAATYYCHQYHHSPYIYTFGGGTKLEIK | 0.783 and 0.745 and 0.697 | 1.04 and 0.993 and 0.929 |
| KB001 mouse Fab VL T24E (Fab, V domains shown) VH: EVQLKQSGPGLVAPSQSLSITCTVSGFSLSIYSVHWVRQPPGKGLEWLGMIWGGGSSDYNSALKSRLSISKDNSKSQVFLKMNSLQTDDTAMYYCARNGNFYAMDYWGQGTSVTVSS VL: QIVLTQSPAIMSASLGERVTMTCEASSSVSSSFLHWYQQKPGSSPQLWIYSTSNLASGVPARFSGSGSGTSYSLTISSMEAEDAATYYCHQYHHSPYIYTFGGGTKLEIK | 0.852 and 0.81 | 1.11 and 1.05 |
| KB001 mouse Fab VL S28P (Fab, V domains shown) VH: EVQLKQSGPGLVAPSQSLSITCTVSGFSLSIYSVHWVRQPPGKGLEWLGMIWGGGSSDYNSALKSRLSISKDNSKSQVFLKMNSLQTDDTAMYYCARNGNFYAMDYWGQGTSVTVSS VL: QIVLTQSPAIMSASLGERVTMTCTASSPVSSSFLHWYQQKPGSSPQLWIYSTSNLASGVPARFSGSGSGTSYSLTISSMEAEDAATYYCHQYHHSPYIYTFGGGTKLEIK | 0.808 and 0.726 | 1.08 and 0.967 |
